Measured values from the DeepSol protein solubility set.

Test: soluble on expression in E. coli; label from the status in PepcDB or PDB records

Sequence	soluble on expression in E. coli
MSSRAVSLFSKCGSRISQTRGKAHFTFQPSTTLPAGLENLEKTKMNLMQSVNEAMRIAMETDDSAVLFGEDVAFGGVFRCSLDLQKKFGKDRVFNTPLCEQGIAGFGIGVAAAGATAIAEIQFGDYIFPAYDQLVNEAAKFRYRSGNQFDCGKLTVRTTWGAVGHGALYHSQSPEANFTHTPGLKLVVPRGPVQAKGLLLSCIRDPNPCIFFEPKILYRLASEDVPTGDYTIPLGQAETVRSGKDLTLVAWGTQVHVALEAAQLAKEKLNADVEVIDLQTIQPWDEDHVVESVQKTGRLIVTHEAPISSGFGAEIASTVQKRCFLNLESPIDRVAGFDTPFPHVHEPFYLPTVHRVFDAIKKSVNY	not soluble
MSSRIEQIIDEIDEFIESCKFQPLSATKIIVNKEEIEELLRELRLKTPDEIKRYQKIISNKDAILEDAQSKADAIIADAQAKAQELVTQHEIMQKAYAQANDTINAANKQAQEILDSATQDANSIRLSAITYTDDMMANIGSVLNQTLEDAGGKYKGFIDALQSCLDVVNHNRQELAPQTAQAAAMTGSYHEEPADAPEEDSLLDDLGEE	not soluble
MSSSSESDSEGERKLPLSYRRKRRRDSSSTTNSEVSDNDRKKRQNEKRRSRESSKMKHQKTAKRDKPMWKEEGEISCDSESDVCNSSSSNNRSRCRDRRRRTDYGRRRHRNSDSRSHERWSTRRRQTTPEGNFRCDECGCNHYTLKGLIHHEMNDHNLNAKCHLCQKSFENKKTFREHCELDHTPEVVRCVFCKSSFDQPLEMNDEQWAHFFAHIYGEILYSRLADYEDRALNTA	not soluble
MSSTAAKKDVKSSAVPVTAVVEKKEFEEEEFEEFPVQEWAERAEGEEDDVNVWEDNWDDETHESEFSKQLKEELRKSGHQVA	not soluble
MSSTALLPPNTDQVLSRRLHGKAAEKKTGLAAIASKDVDEQSRKLQEYFEFWDRNHENESEEDRARRIDGYKSVVNSYYDLATDLYEYGWSQSFHFSRFYKGEAFAQSIARHEHYLAYRMGIKPGSRVLDVGCGVGGPAREITEFTGCNLVGLNNNDYQISRCNNYAVKRNLDKKQVFVKGDFMHMPFEDNTFDYVYAIEATVHAPSLEGVYGEIFRVLKPGGVFGVYEWVMSDDYDSSIPKHREIAYNIEVGDGIPQMVRKCDAVEAIKKVGFNLLEEDDLTDHDNPDLPWYYPLTGDITKCQNIWDVFTVFRTSRLGKLVTRYSVQFLEKIGVAAKGTSKVGDTLAIAQKGLIEGGETHLFTPMFLMIAKKPETDA	soluble
MSTCSDESCDKECPLCMETLELDDINFYPCKCEYQICRFCWHRIRTDENGLCPACRQPYPEDPVNFKPMTTDDVRKHKDEQRLKKQAEKLKLSDARQYLCNYRVLQKNLVYVVGLSPRVADPEILKKNEYFGRYGKIQKIVTSATPSLPAPHLPPSHTAYVTYKRVDDALRAIQGVHNSMLDGRLVKASLGTTKYCSSFLNSRKCFKPVGECMYLHENAEAEISFTKDDMHLGKHTEYEKRLIESMNSRPPPPQSTLASQLDKILAPTSNSPRRYLEDDSDTVDDVERTGSAIHMCADDPDDDDADSTNTSNSIDDPAPSNPADETVNSRRSNQTARERQWSERDEISVAPSNTPPTDPEGNENEFEEDIHRNDVSDLMSKLDVNDDRLARTSFSENDYLGIPAPAKHQEAPAPLMQWEALLGLSSPSAQSTIVEPSSLFPTFKMDSGFNSQSLFGTHTSSTPSFRREASPPPGLARFNSDDDLGFDPFTESSKGLSALLQEEQEQIPPHNSASNHTLDVLKQLFGQLPEQRQSTQQHPQHLQSSHQQHPLQQNQDQHHSFLHQLHAQQQHQQQQFAADMNRQQDYMYSRLMSQQQQQSQQQRQFDSTPGFSHPFGSMQQQQQSSQQQQHQSQSSQSSSLLQDLFNRQQQQHQAQQQAQQHQQQQMYAGINSYMYNDMLMPRVPFGMAPPPGLGGPSTNRSSTTQQAPPHMTQQSQQQQQQQQSSMGLFGMGGHQSMMQDHQSQQPQSAQDAFKALLPNVNVRFMDDNSMSRWSHENSLRSSAVPPPPGFSSVMNR	not soluble
MSTDKITFLLNWQPTPYHIPIFLAQTKGYFKEQGLDMAILEPTNPSDVTELIGSGKVDMGLKAMIHTLAAKARGFPVTSVASLLDEPFTGVLYLKGSGITEDFQSLKGKKIGYVGEFGKIQIDELTKHYGMKPEDYTAVRCGMNVAKYIIEGKIDAGIGIECMQQVELEEYLAKQGRPASDAKMLRIDKLACLGCCCFCTVLYICNDEFLKKNPEKVRKFLKAIKKATDYVLADPVKAWKEYIDFKPQLNNDLSYKQYQRCYAYFSSSLYNVHRDWKKVTGYGKRLAILPPDYVSNYTNEYLSWPEPEEVSDPLEAQRLMAIHQEKCRQEGTFKRLALPA	soluble
MSTEQANGTTIEEKKDKVAEVTEKLDNLAVDTTNEANDAKQPARRGGFRGRGRGRGRGGHFYQPRPPYEDQMKKLEEDLASKKVIETGVKGHVKWFSVRGRYGFVARDKPTDENEDFFVHQTAITKSSTIKFYLRTLDDDEPVVFDIVEGLKGPEAANVTGPDGENVRGSRFARTLLTHWRTRGRGGARGRGGRGRGAPRQTRDQDGDEKDEKEKSDTIENSGDGETRGKRRTRRHGKLQPDAPSGEKGDGDAAAATTDAAPAAEKKKKRQRKGNKEPTTTTEQKEETAAPAKA	not soluble
MSTGANRILDDLARLMTDAAGAAQGVRREVEAAFRAQTENWLNSLDVVKREEFEAVKEMAARARDENDALLARIEALEARLAATGPAAADITTGK	not soluble
MSTHFDVIVVGAGSMGMAAGYQLAKQGVKTLLVDAFDPPHTNGSHHGDTKIIRHAYGEGREYVPLALRSQELWYELEKETHHKIFTKTGVLVFGPKGESAFVAETMEAAKEHSLTVDLLEGDEINKRWPGITVPENYNAIFEPNSGVLFSENCIRAYRELAEARGAKVLTHTRVEDFDISPDSVKIETANGSYTADKLIVSMGAWNSKLLSKLNLDIPLQPYRQVVGFFESDESKYSNDIDFPGFMVEVPNGIYYGFPSFGGCGLKLGYHTFGQKIDPDTINREFGVYPEDESNLRAFLEEYMPGANGELKRGAVCMYTKTLDEHFIIDLHPEHSNVVIAAGFSGHGFKFSSGVGEVLSQLALTGKTEHDISIFSINRPALKESLQKTTI	soluble
MSTIKIVPLGGVRENGKNMYVAEVEDEIFVLDCGLQYPENELLGIDVVIPDFTYLEENSERIAGVFLTHGHADAIGALPYLLSKIQVPVFGTELTIELAKLSVNSHAETKKFKDFHVIDPHTEIDFGQATVSFFKTTHTIPDSIGVSIKTKEGNIVYTGDFKFDQSAIEMYQTDYGRLAEIGKEGVLALLSDSSNAENPAQVASEAQIADEVFDTIRYWEGRIIVACVASNLQRVQQVLNAADRSGRKVVLTGQDFERIIRTAMKLEKLQLPSEDLLVKPKEMKKYAPEQLLILETGRMGEPIKSLQKMANNTHGVVRIEEGDLVYITTTPTTAMETTVAKTEDIVYRAGATVKQISDNLRVSGHANPNDLQLMLNLMKPKYFIPVQGEYRQLAAHADLAHEIGMPYKDIFITGRGDILEYTKGRMSVAGSTTAENIMIDGIGVGDIGNIVLRDRRILSEDGIFVAVVTINRREKRIVSPAKITSRGFVYVKTSKDLMKESSNIVTEIVEKHLESDDFEWSKLKQEIRENLSRYLFEQTKRRPVILPVIMEATQRKRPKNNA	not soluble
MSTKEEITKEIEEQGAEVRRVKGDKNSTEEAKKEAIDKLLALKLTYKEVTGQEYAAPNARQSKPKKEEKPKQQPKQQEKKQDGKKQTLLGVGTKKDDNYSEWYSEVITKAEMIEYYDVSGCYVLRPWSFAVWESIQEWFDSGIKKLGVKNCYFPMFVSNAALEREKTHIADFAPEVAWVTRAGNSEMAEPIAIRPTSETVMYPSYKKWVQSHRDLPIKLNQWCNVVRWEFKHPTPFLRTREFLWQEGHTAFANPADAEKEVFQILDLYAGVYTDLLAIPVVKGRKSEKEKFAGGDFTTTVEAYVACNGRGIQGATSHHLGQNFSKMFDISYEDPAKEGERAFAWQNSWGLSTRTIGAMVMIHGDDKGLVLPPRVAAVQVIVVPVGFKTENKQSLFDAVDKVTKDLVADGVKAEHDLRENYNAGWKFNHWELKGVPIRFEVGPNDLAKNQVTAVIRHNGEKKQLSLEGLSKTVKSLLDEIHTAMYNKVLAQRDSHLKSTTCIEEFKKLLDEKCIILSPFCGRPDCEEEIKKASTREDGEGAQMGAKTLCIPLDQPKQELPSKCLFPSCTYNAKAFALFGRSY	not soluble
MSTKLYYIYDPMCSWCWGYRPVWDLLQQHLPKSIDVEYVAGGLAPDSDSAMPIDQQQMIQNHWRTIEQKLGTKFNYDFWRENTARRSTYNACRAAIAAHKQSCQKAMIDAIQQAYYLRALNPSDVDVLVSVAKELSEQTSPTLDVAQFIVDINSSETNKELAKQVTLARELTQQGFPSLVLDVDGVIQQIPLDYSDYKTTLAYIIKKTS	not soluble
MSTKPAAAKTKPSCSEGGDLRVETENGETFITATQRADGTWRKARRVKGGYIPQDEQPKYQNKMQLEATNGRSSVPAGVNPRAMASGSSRKPVSAIKANVCITPQDHFQKKIDLTKKKIEDIEGMESRIASGELVPQPNQVKKIARKQEYLDEIEKLTLEMKKL	not soluble
MSTKSIATSSTASSSSSHHQEHTVTELIMFFTSEEPPEPEPFSRSTEKSGIRTSKVITRTITISAETKLKMDLLEEQRREKRVKLEIEKSRIRAENLQRMQEISSEPKTRGSKRSLMRRAAKRTKGRISSLLIRDSSVDSGSITDKALKDKKRGLSLEWEVKDQGRFAESFSDSRLMEMFQHPSGMPIEPDVMMEGYLYKRSSNAFKTWNRRWFQIKDKQLLYSHRSTDLEPATIMEENLRICLVRPAPSNIDRIGCFELVTPTRIHLLQADSESLCQDWMRALQRTILALHEGDSVDVASTSPRNKTTSMSSGVTLTSANAISPLSNAMDVTKGRSVSDPASTYTSANTSSISTAAGFSSSTTAFEQVRRVPGNEVCADCGSPAPKWVSINLGVVLCIECSGAHRSLGVQTSKVRSLCMDSIDNELRDVLLALGNRQVNEIFLAHLPPADSIVPPQINEKSARPAREAWIKAKYVERRFAVAEDTRARSSATNRQEHLKHKTSIGGNSSSNGVNRSSSYADVQDAESGGLLDADPWSADLSVPVPTASKRLSACGSDTNLDAIGSSSIDTKTVEWDSVKEACECGDLLALMTAYAQGFDLNALHNGTTALHIATRNGQTAAVEFLLLNGAKINMLDEKLNTPLHLAAKEGHTLPVCQLLKRGADSNLANVDSKTPLDIAMECTHADIVTLFRVTIMRNDFNADFNNPMDETVEAVISDIARRAATEKEQKKTESLKSTSDI	not soluble
MSTLIECGASPFIPGFALKDVRLENGLTVRVAIGGSGSPLVLLHGHPQNHTTWRKVAPTLAQNHTVILPDLRGYGDSDKPTSDPAHRTYSKRTMAQDIVMLMDALGFSRFAFVGHDRGGRVGHRLALDYPDRVTCCTFIDIAPTATMYALTDKSFATRYFWWFFLIQPFPLPETMIAHDPAFFLRKHISGQLKIEGATSQEAFNEYLRCYQNPEMIHAICEDYRAAATIDLDDDAADTSARIRCPLQLLWGGLGTVGQLYNVVGTWKEKALNVQGEALPCGHSPQEECPEYFIQKLQSFLHSVL	soluble
MSTPRTVLVVGGGAAGNAVTILLRRAGLTVDLVEAKDDWNATAGSGITLQGNALRVLRELGVWEQVEASGFGFGSVGITTPDGTVLHVQDDLRTGGDDLPATVGMQRPRLQQILIEAVRASGASVRLGTTAEILDQDSDGVHVRLSDGSEHRYDLVVAADGLGSATRAAIGITDKPEPTGMAIWRIAAPRPAGLTRTDLAYGGPAHIAGYCPTGETTLYAYVVEANRDRAGIPPASYADEMRGLTRHYGGFWPDITEHITDPAKVNYTWFDRLLVEGSWHRGRVVLVGDAAHCCPPTLAQGAALSLEDAWVLAQMLTGSDVWDDALFQAYYERRIARVRPVVAASVQIGQWQLDGVRDADLPGLMGRTMTMLRELPLEHHHHHH	not soluble
